The text below walks through data of paper PMC2175169 (The Journal of Cell Biology, 2000).

The target in this experiment is authentic E1A 243R protein, purified from bacteria (adenovirus, UniProt P03255-2 1-243). Put plainly: pull-down.

B1: GST-p21 Δ1-80 (domain or fragment)
chain: TGPRRGRDELGGGRRPGTSPALLQGTAEEDHVDLSLSCTLVPRSGEQAEGSPGGPGDSQGRKRRQTSMTDFYHSKRRLIFSKRKP
As to B1, the binding result is given as “binds”.
